The values below come from paper PMC6520838, “Structural Insights to the Heterotetrameric Interaction between the Vibrio parahaemolyticus PirA^vp and PirB^vp Toxins and Activation of the Cry-Like Pore-Forming Domain” (Toxins, 2019).

Test [1] deals with T1, N-terminal tagged His10-PirA^vp (Vibrio parahaemolyticus).
T1 chain: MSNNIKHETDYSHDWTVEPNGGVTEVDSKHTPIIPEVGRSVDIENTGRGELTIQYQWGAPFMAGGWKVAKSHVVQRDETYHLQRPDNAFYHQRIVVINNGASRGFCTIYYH
In words: SDS-PAGE densitometry of the complex collected from gel filtration; complex fractions eluted at 12.5 to 13 mL, serially diluted, SDS-PAGE; bands quantified with Image J against standard curves of PirA^vp and PirB^vp. To be noted: both partners purified. In general terms: SEC sorts molecules by how far they enter the pores of the column.

In test [2] the target is T1, N-terminal tagged His10-PirA^vp. In words: ITC; iTC200; 1100 uM PirB^vp in the syringe injected into 110 uM PirA^vp in the cell, 19 injections of 2 uL, 25 °C; 30 mM Tris pH 8.0, 100 mM NaCl, 5% glycerol, 1 mM DTT; triplicate. The note with it: both partners purified. (In general: Isothermal titration calorimetry measures the heat released or taken up as one component is titrated into another.)

B1: C-terminal tagged His6-PirB^vp (natural protein)
chain: MTNEYVVTMSSLTEFNPNNARKSYLFDNYEVDPNYAFKAMVSFGLSNIPYAGGFLSTLWNIFWPNTPNEPDIENIWEQLRDRIQDLVDESIIDAINGILDSKIKETRDKIQDINETIENFGYAAAKDDYIGLVTHYLIGLEENFKRELDGDEWLGYAILPLLATTVSLQITYMACGLDYKDEFGFTDSDVHKLTRNIDKLYDDVSSYITELAAWADNDSYNNANQDNVYDEVMGARSWCTVHGFEHMLIWQKIKELKKVDVFVHSNLISYSPAVGFPSGNFNYIATGTEDEIPQPLKPNMFGERRNRIVKIESWNSIEIHYYNRVGRLKLTYENGEVVELGKAHKYDEHYQSIELNGAYIKYVDVIANGPEAIDRIVFHFSDDRTFVVGENSGKPSVRLQLEGHFICGMLADQEGSDKVAAFSVAYELFHPDEFGTEK
By stoichiometry N is commonly meant the number of molecules, sites or subunits per partner or assembly. The term Kd denotes the equilibrium constant for the complex coming apart. A lower Kd goes with higher affinity. On to B1, for which, in test [1], the “stoichiometry N” value is 1.1 PirA^vp per PirB^vp. In addition, in test [2], the affinity, expressed as Kd, was 7.33 ± 1.2 µM; the dH was -25.7 ± 1.42 kcal/mol; the “stoichiometry N” value was determined as 0.74 ± 0.01.
